Measurements reported in patent US20030182691A1.

Experiments:
[1] = molecular target: T1, papain (cysteine protease) (UniProt P00784); experiment: phage ELISA, papain coated in well, phage diluted 1 in 100, anti-M13/HRP detection
T1 sequence (looked up): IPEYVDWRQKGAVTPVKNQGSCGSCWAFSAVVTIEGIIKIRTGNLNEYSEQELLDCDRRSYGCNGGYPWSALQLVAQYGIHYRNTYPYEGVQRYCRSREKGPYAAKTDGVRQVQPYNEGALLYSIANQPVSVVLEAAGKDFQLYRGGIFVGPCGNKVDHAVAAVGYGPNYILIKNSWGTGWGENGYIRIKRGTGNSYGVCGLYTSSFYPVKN

[2] = molecular target: trypsin (serine protease); experiment: phage ELISA, trypsin coated in well, phage diluted 1 in 100, anti-M13/HRP detection
[3] = molecular target: POP-1 protein: Brassica napus Sta 44G(2) / Sitophilus zeamais SCPc1 protease translational fusion (Brassica napus; Sitophilus zeamais); experiment: cell-based or functional assay
[4] = molecular target: T1, papain (cysteine protease); experiment: cell-based or functional assay
[5] = molecular target: T2, POV-1 protein: Brassica napus Sta 44G(2) / Onchocerca volvulus OV7 protease inhibitor translational fusion, P22085
T2 chain: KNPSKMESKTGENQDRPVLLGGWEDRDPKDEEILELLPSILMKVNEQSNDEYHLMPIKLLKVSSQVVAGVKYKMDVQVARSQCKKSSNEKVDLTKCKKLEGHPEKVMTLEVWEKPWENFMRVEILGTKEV

[6] = molecular target: T3, OV7/GST (cysteine protease inhibitor OV7 conjugated to GST), P22085
T3 chain: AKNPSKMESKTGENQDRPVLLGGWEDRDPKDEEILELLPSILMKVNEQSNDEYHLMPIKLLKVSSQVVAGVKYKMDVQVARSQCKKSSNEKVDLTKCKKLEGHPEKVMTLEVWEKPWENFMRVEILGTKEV

“M13 wild type or control phage not displaying any foreign protein” was tested, and the O.D.410 (O.D. at 410 nm) [1] was 0.043 and the O.D.410 (O.D. at 410 nm) [2] was 0.026.

B1: POV-1 protein: Brassica napus Sta 44G(2) / Onchocerca volvulus OV7 protease inhibitor translational fusion (protein)
chain: T2 chain
In the case of B1, the Percent Loss of Viability (Alexander staining of pollen, F1 plant POP 2 X POV 20 No. 2) [3] is reported as 19%, the Percent Loss of Viability (Alexander staining of pollen, F1 plant POP 2 X POV 20 No. 3) [3] is reported as 21% and the Percent Loss of Viability (Alexander staining of pollen, F1 plant POP 12 X POV 20 No. 1) [3] is reported as 66%. It also gave a Percent Loss of Viability (Alexander staining of pollen, F1 plant POP 12 X POV 20 No. 4) [3] of 58%, a Percent Loss of Viability (Alexander staining of pollen, F1 plant POP 12 X POV 25 No. 1) [3] of 26% and a Percent Loss of Viability (Alexander staining of pollen, F1 plant POP 12 X POV 25 No. 2) [3] of 19%.

B2: recombinant onchocystatin (OV7), cysteine protease inhibitor (protein)
chain: T3 chain
For B2, the Average Pollen Tube Length (tobacco pollen in vitro, 42 µM papain + 30 µM onchocystatin) [4] was 80 µm and the Pollen Germination (tobacco pollen in vitro, 42 µM papain + 30 µM onchocystatin) [4] was 69%.

B3: papain (cysteine protease) (protein)
chain: T1 sequence (looked up)
In the case of B3, the “percentage of papain protease activity (substrate Pyr-Phe-Leu-pNA, 410 nm) relative to the non-transformed control plant extract” value [5] is reported as 53% to 61% and the “percentage of papain protease activity (substrate Pyr-Phe-Leu-pNA, 410 nm) relative to the non-transformed control plant extract” value [6] is reported as 2%.
